pKd: −log10 of the molar value.
Experiments:
[1] = biological target: Low-density lipoprotein receptor-related protein 1 (LRP1), purified from human placenta (human (purified from human placenta)) (UniProt Q07954); assay: SPR
[2] = biological target: Recombinant human LRP1 cluster IV Fc chimera protein (human); assay: SPR
[3] = biological target: Recombinant human LRP1 cluster II Fc chimera protein (human); assay: SPR
[4] = biological target: Recombinant human LRP1 cluster III Fc chimera protein (human); assay: SPR
LRP1 (Homo sapiens) = LRP1 (Homo sapiens) (UniProt Q07954); settings: cited from earlier work
Chain of LRP1 (Homo sapiens) (Q07954 20-4544): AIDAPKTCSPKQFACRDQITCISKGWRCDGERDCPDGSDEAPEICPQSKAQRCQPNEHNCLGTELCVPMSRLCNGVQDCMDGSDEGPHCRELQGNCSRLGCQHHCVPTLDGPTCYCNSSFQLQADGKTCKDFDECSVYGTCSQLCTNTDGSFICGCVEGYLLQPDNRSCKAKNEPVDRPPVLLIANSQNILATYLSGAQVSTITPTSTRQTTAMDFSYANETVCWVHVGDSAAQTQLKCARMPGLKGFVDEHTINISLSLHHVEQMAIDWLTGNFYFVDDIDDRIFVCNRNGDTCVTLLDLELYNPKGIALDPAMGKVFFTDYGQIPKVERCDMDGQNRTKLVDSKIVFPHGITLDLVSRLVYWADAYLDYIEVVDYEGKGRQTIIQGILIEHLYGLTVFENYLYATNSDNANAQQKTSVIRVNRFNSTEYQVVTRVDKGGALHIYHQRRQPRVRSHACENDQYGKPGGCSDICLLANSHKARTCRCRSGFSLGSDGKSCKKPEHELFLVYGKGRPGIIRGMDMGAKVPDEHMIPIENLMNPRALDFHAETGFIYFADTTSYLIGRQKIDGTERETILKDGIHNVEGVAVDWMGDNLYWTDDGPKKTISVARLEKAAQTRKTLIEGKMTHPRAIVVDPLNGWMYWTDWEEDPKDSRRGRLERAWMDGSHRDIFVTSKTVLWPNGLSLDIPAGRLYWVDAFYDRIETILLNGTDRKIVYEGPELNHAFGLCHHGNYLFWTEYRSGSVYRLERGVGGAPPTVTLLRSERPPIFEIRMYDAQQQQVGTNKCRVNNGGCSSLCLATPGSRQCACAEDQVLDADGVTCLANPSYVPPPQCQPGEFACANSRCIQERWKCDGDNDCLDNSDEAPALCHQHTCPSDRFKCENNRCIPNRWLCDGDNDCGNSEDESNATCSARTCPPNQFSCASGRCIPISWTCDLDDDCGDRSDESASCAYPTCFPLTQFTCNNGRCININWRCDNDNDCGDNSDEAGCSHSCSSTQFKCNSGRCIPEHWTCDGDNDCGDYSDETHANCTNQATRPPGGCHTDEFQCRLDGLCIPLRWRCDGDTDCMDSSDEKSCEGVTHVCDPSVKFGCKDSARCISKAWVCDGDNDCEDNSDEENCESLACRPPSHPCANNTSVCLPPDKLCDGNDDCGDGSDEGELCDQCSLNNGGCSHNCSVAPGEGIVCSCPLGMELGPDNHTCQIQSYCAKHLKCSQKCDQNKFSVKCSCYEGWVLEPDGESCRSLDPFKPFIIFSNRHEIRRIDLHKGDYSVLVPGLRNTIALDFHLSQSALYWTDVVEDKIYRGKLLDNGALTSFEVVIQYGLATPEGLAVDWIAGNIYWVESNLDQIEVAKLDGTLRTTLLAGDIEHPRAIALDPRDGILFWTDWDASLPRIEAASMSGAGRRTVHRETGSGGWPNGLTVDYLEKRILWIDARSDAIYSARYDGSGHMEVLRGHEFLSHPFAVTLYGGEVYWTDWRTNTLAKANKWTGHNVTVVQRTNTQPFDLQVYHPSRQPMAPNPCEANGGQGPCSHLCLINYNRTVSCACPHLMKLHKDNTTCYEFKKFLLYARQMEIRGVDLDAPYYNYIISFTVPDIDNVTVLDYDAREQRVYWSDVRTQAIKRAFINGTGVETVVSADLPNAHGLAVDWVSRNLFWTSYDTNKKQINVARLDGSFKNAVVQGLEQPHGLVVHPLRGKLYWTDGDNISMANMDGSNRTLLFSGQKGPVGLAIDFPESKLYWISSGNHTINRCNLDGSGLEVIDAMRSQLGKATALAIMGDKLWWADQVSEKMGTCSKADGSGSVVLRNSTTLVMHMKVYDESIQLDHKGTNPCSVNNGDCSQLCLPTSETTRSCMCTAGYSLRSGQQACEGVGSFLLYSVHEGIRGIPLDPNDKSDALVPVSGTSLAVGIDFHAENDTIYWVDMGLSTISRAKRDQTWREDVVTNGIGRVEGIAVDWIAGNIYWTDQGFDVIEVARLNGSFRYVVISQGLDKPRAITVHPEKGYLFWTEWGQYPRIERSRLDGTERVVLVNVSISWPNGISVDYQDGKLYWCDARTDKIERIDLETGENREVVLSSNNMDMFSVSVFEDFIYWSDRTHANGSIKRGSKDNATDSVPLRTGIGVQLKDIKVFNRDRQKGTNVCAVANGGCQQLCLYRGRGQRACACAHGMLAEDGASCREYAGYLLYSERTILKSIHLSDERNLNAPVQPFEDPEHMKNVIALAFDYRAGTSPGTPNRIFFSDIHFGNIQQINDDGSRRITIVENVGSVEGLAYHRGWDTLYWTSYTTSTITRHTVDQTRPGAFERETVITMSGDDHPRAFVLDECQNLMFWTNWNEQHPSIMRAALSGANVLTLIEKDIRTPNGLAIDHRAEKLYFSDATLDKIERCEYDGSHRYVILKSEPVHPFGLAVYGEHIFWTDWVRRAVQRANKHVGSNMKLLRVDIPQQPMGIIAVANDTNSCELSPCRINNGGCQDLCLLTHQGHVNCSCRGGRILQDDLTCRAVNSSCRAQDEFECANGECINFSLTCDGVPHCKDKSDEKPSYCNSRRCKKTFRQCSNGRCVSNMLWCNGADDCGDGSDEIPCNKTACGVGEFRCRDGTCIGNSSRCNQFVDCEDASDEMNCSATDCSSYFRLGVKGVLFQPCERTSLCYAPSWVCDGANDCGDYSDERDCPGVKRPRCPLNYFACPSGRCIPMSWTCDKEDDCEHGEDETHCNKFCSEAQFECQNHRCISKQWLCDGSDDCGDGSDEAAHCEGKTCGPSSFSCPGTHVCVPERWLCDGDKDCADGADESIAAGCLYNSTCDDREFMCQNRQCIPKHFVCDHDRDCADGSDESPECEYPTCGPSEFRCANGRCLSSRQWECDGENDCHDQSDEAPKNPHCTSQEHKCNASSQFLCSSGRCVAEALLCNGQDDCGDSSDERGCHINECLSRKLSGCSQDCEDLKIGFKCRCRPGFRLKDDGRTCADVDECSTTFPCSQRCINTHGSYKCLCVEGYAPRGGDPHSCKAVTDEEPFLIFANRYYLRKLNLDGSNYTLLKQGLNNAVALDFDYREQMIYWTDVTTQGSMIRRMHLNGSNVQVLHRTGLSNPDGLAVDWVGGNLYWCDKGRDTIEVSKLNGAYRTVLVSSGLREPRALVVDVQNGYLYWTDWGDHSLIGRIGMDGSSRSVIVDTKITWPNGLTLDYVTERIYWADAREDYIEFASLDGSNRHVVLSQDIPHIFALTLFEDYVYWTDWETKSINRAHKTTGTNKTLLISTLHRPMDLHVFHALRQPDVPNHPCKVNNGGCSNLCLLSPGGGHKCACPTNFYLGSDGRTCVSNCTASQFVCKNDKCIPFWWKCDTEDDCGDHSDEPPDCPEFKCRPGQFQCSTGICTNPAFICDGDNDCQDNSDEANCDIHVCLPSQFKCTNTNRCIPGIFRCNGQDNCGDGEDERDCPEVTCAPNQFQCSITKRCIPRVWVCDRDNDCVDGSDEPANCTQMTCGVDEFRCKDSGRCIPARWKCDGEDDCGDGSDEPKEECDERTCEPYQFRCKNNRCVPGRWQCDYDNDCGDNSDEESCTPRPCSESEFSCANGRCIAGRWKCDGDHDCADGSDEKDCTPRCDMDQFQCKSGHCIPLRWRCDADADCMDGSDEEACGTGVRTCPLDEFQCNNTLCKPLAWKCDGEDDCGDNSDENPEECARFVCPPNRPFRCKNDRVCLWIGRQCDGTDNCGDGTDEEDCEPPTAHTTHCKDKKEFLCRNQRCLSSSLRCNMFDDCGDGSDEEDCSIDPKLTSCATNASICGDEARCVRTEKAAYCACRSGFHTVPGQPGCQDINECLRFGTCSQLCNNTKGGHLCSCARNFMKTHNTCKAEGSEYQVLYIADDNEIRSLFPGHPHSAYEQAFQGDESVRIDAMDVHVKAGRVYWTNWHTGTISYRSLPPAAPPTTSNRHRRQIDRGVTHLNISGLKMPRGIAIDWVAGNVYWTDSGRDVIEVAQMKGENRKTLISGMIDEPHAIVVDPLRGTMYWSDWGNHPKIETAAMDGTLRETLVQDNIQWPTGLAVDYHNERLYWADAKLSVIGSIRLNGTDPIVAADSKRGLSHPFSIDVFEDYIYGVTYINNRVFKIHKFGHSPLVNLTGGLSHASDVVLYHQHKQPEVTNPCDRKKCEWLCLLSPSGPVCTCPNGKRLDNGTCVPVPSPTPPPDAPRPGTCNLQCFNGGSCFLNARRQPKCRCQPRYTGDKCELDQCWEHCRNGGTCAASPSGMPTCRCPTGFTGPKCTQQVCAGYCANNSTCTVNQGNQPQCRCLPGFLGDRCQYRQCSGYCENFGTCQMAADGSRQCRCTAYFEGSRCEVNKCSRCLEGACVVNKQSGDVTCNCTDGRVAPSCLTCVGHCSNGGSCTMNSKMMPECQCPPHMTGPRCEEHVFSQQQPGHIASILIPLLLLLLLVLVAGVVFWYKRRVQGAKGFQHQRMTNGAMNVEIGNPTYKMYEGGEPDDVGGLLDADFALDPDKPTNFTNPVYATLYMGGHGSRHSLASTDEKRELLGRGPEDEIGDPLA

Chain of Low-density lipoprotein receptor-related protein 1 (LRP1), purified from human placenta (human (purified from human placenta)) (Q07954 20-4544): as above
Chain of Tissue inhibitor of metalloproteases 1 (TIMP-1) (P01033 24-207): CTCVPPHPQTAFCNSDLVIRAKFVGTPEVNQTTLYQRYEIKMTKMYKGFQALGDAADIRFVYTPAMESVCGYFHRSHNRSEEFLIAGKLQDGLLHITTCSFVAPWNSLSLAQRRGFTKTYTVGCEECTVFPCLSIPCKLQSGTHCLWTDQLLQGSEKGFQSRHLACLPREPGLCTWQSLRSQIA

Substance	ka2 (bivalent model, second step) [1]	kd1 (bivalent model, first step) [1]	kd2 (bivalent model, second step) [1]	pKd [2]	pKd [3]	pKd [4]	other results
MMP-1/TIMP-1 complex (from UniProt P01033 24-207)	0.012 s⁻¹	0.026 s⁻¹	2.7e-05 s⁻¹	7.49	7.57	7.92	ka1 (bivalent model, first step) [1]: 93000 M⁻¹ s⁻¹; ka1 (bivalent model, first step) [2]: 99000 M⁻¹ s⁻¹; ka2 (bivalent model, second step) [2]: 0.02 s⁻¹; kd1 (bivalent model, first step) [2]: 0.064 s⁻¹; kd2 (bivalent model, second step) [2]: 0.001 s⁻¹; ka1 (bivalent model, first step) [3]: 120000 M⁻¹ s⁻¹; ka2 (bivalent model, second step) [3]: 0.02 s⁻¹; kd1 (bivalent model, first step) [3]: 0.077 s⁻¹; kd2 (bivalent model, second step) [3]: 0.00085 s⁻¹; ka1 (bivalent model, first step) [4]: 200000 M⁻¹ s⁻¹; ka2 (bivalent model, second step) [4]: 0.019 s⁻¹; kd1 (bivalent model, first step) [4]: 0.079 s⁻¹; kd2 (bivalent model, second step) [4]: 0.00062 s⁻¹
Human His-tagged proMMP-1 (from UniProt P03956 20-469) (enzyme)				6.45	6.77	7.47	
Tissue inhibitor of metalloproteases 1 (TIMP-1) (from UniProt P01033 24-207) (natural protein)				6.41	6.89	7.41	
MMP-1/TIMP-3 complex (from UniProt P03956)							pKd (LRP1 (Homo sapiens)): 8.30
Active MMP-1 (enzyme)	0.0084 s⁻¹	0.017 s⁻¹	0.0015 s⁻¹				pKd [1]: 7.60

— article PMC7503162
